Laboratory results reported in the RNAGym collection of RNA variant scans (doi:10.1101/gr.219683.116).

B1: mRNA-splicing (parent)
chain: AGUUGCUGCUGGGAGCUCCAGCACAGUGAAAUGGACAGAAGGGCAGAGCAA

Variants of: B1
Assay: exon inclusion enrichment index; higher = more inclusion; WT1 exon 5 minigene, HEK293

In order of falling “exon inclusion enrichment index” value:
1. G5U G8C  1.34
2. G5U G8U  1.33
3. G5U G8A  1.23
4. G5U G8U C9U C24U A25C  0.987
5. G5U G8C C9U U10C  0.934
6. G5U G8U C9U C24A A25C  0.849
7. G5U G8U C9U G26A U27C  0.838
8. G5U G8U C9U A25G G26A  0.765
9. G5U G8U C9U A40G G41C  0.76
10. G5U G8U C9G U10C  0.741
11. G5U G8U C9U A25G G26C  0.74
12. G5U G8U C9U A40C G41C  0.711
13. G5U G8U C9U A45G G46A  0.672
14. G5U G8U C9U C24G A25C  0.663
15. G5U G8U C9A U10C  0.61
16. G5U G8U C9U C44A A45C  0.576
17. G5U G8U C9U A31C U32C  0.544
18. G5U G8U C9U C44A  0.454
19. G5U G8U C9U C44A A45U  0.41
20. G5U G8U C9U A25G G26U  0.38
21. G5U G8U C9U A45G  0.366
22. G5U G8U C9U C24U A25G  0.363
23. G5U G8U C9U C44G A45C  0.346
24. G5U G8U C9U G26A U27G  0.338
25. G5U G8U C9U C44A A45G  0.326
26. G5U G8U C9U A39C A40C  0.321
27. G5U G8U C9U G11C  0.297
28. G5U G8U C9U A39U A40C  0.287
29. G5U G8U C9U A31U U32C  0.282
30. G5U G8U C9U C44G  0.278
31. G5U G8U C9U A45G G46C  0.262
32. G5U G8U C9U A23G  0.252
33. G5U G8U C9U G26A U27A  0.24
34. G5U G8U C9U A45U  0.21
35. G5U G8U C9U C36A A37C  0.21
36. G5U G8U C9U C24G A25U  0.208
37. G5U G8A C9U  0.205
38. G5U G8A C9A  0.204
39. G5U G8U C9U A31C  0.202
40. G5U G8U C9U A45C  0.201
41. G5U G8U C9U G13C A14G  0.2
42. G5U G8U C9U C18G C19G  0.195
43. G5U G8U C9U A31C U32G  0.188
44. G5U G8U C9U A31G  0.187
45. G5U G8U C9U C24A A25G  0.175
46. G5U G8U C9U A37C G38C  0.175
47. G5U G8U C9U A30C  0.172
48. G5U G8U C9U A39C A40G  0.162
49. G5U G8U C9U G21C  0.162
50. G5U G8U C9U C18G C19A  0.159
51. G5U G8U C9U A37C G38A  0.157
52. G5U G8U C9U A31U  0.15
53. G5U G8U C9U C24A A25U  0.149
54. G5U G8U C9U G11U  0.144
55. G5U G8U C9U A47U G48U  0.143
56. G5U G8U C9U A39C A40U  0.141
57. G5U G8U C9U C16A  0.141
58. G5U G8U C9U C19G A20U  0.14
59. G5U G8U C9U A47C G48C  0.139
60. G5U G8U C9U A47C G48U  0.134
61. G5U G8U C9U C19G A20C  0.13
62. G5U G8U C9U A29U A30G  0.129
63. G5U G8U C9U C16U  0.128
64. G5U G8U C9G U10A  0.128
65. G5U G8U C9U C24U A25U  0.127
66. G5U G8U C9U C16G U17A  0.115
67. G5U G8U C9U C36U A37G  0.114
68. G5U G8U C9U C22U A23G  0.109
69. G5U G8U C9U A30G  0.109
70. G5U G8U C9G U10G  0.108
71. G5U G8U C9U A14C  0.108
72. G5U G8U C9U A40G G41U  0.107
73. G5U G8U C9U A23C  0.1
74. G5U G8U C9U G13C A14U  0.1
75. G5U G8U C9U A45G G46U  0.0933
76. G5U G8U C9U C18A  0.0931
77. G5U G8U C9U A47C G48A  0.0919
78. G5U G8U C9U A29U A30C  0.0859
79. G5U G8U C9U A45C G46C  0.0849
80. G5U G8U C9U C36U A37U  0.081
81. G5U G8U C9U A40C G41U  0.079
82. G5U G8U C9U G21U  0.078
83. G5U G8U C9U G13A  0.0771
84. G5U G8U C9U A31C U32A  0.077
85. G5U G8U C9U A37U G38C  0.0749
86. G5U G8U C9U A47U G48A  0.0727
87. G5U G8U C9U G13U A14C  0.0727
88. G5U G8U C9U A40G G41A  0.0719
89. G5U G8U C9U G21A  0.0718
90. G5U G8U C9U A14G  0.0707
91. G5U G8U C9U C36U A37C  0.0658
92. G5U G8U C9U A47U G48C  0.0643
93. G5U G8U C9U G13C A14C  0.063
94. G5U G8A C9G  0.061
95. G5U G8U C9U A45C G46U  0.0571
96. G5U G8U C9U A14G G15C  0.0571
97. G5U G8U C9U A45C G46A  0.056
98. G5U G8U C9U A30U  0.0559
99. G5U G8U C9U C36A A37G  0.0549
100. G5U G8U C9U C44G A45U  0.0543
101. G5U G8U C9U A37C G38U  0.0543
102. G5U G8U C9U A39G  0.0522
103. G5U G8U C9U C22U A23C  0.0522
104. G5U G8U C9U C16U U17A  0.0519
105. G5U G8U C9U A14G G15A  0.0466
106. G5U G8U C9U A23U  0.0459
107. G5U G8U C9U G12C  0.0449
108. G5U G8U C9U C22U A23U  0.0443
109. G5U G8U C9U A40C G41A  0.0439
110. G5U G8U C9U A47G G48A  0.0435
111. G5U G8U C9U A37U G38A  0.0389
112. G5U G8U C9U C16U U17C  0.0384
113. G5U G8U C9U C22G A23C  0.0377
114. G5U G8U C9U C16G  0.0374
115. G5U G8U C9U C19A A20C  0.0372
116. G5U G8U C9U G12A  0.0372
117. G5U G8U C9U C19G A20G  0.0362
118. G5U G8U C9U A31U U32G  0.0359
119. G5U G8U C9U C24G A25G  0.0358
120. G5U G8U C9U A39U A40U  0.0352
121. G5U G8U C9A U10A  0.0322
122. G5U G8U C9U C16G U17C  0.0319
123. G5U G8U C9U G11A G12C  0.0306
124. G5U G8U C9U C44U  0.0292
125. G5U G8U C9U A47G G48C  0.0267
126. G5U G8U C9U C36A A37U  0.0263
127. G5U G8U C9U A30G A31U  0.0253
128. G5U G8U C9U A37U G38U  0.0252
129. G5U G8U C9U A39C  0.0249
130. G5U G8U C9U G13U A14U  0.0249
131. G5U G8U C9U G11A  0.0224
132. G5U G8U C9U C44G A45G  0.0217
133. G5U G8U C9U C22G A23G  0.0211
134. G5U G8U C9U A39U A40G  0.0207
135. G5U G8U C9U C18U C19G  0.0199
136. G5U G8U C9U A30G A31G  0.0186
137. G5U G8U C9U G12U  0.0166
138. G5U G8U C9U C19A A20U  0.0164
139. G5U G8U C9U A14U G15C  0.0163
140. G5U G8U C9A U10G  0.0162
141. G5U G8U C9U G11U G12C  0.0157
142. G5U G8U C9U A29U A30U  0.0146
143. G5U G8U C9U C22G A23U  0.0132
144. G5U G8U C9U A14U  0.0126
145. G5U G8U C9U G13U A14G  0.0118
146. G5U G8U C9U G13C  0.0102
147. G5U G8U C9U C16U U17G  0.0101
148. G5U G8U C9U G12U G13C  0.00926
149. G5U G8U C9U G11A G12A  0.00894
150. G5U G8U C9U A14G G15U  0.0063
151. G5U G8U C9U G11U G12U  0.00578
152. G5U G8U C9U C16G U17G  0.00571
153. G5U G8U C9U A31U U32A  0.00567
154. G5U G8U C9U C19A A20G  0.00554
155. G5U G8U C9U C18G C19U  0.00531
156. G5U G8U C9U A14U G15U  0.00524
157. G5U G8U C9U G11A G12U  0.00501
158. G5U G8U C9U A14U G15A  0.00362
159. G5U G8U C9U A30G A31C  0.00346
160. G5U G8U C9U C18U C19A  0.00338
161. G5U G8U C9U G13U  0.00294
162. G5U G8U C9U A47G G48U  0.00268
163. G5U G8U C9U G11U G12A  0.00214
164. G5U G8U C9U A39U  0.00188
165. G5U G8U C9U C18U C19U  0.000815
166. G5U G8U C9U G12U G13A  0.000421
167. G5U G8U C9U G12U G13U  0.000363
